Measurements reported in US20100144634A1 (published 2010).
Blank lines part the entries; values can stand above or below the molecule they belong to.

Key:
[1] = target: von Willebrand factor (VWF), purified plasma-derived, multimeric, native (UniProt P04275); assay: SPR (BIAcore), VWF injected under flow over immobilised T5-8CUB, equilibrium fit
[2] = target: von Willebrand factor (VWF), purified plasma-derived, multimeric, native (UniProt P04275); assay: cell-based or functional assay
[3] = target: von Willebrand factor (VWF), purified plasma-derived, multimeric, native (UniProt P04275)
[4] = target: von Willebrand factor (VWF), purified plasma-derived, multimeric, native (UniProt P04275); assay: SPR (BIAcore), VWF injected under flow over immobilised delCUB, equilibrium fit, no EDTA
[5] = target: von Willebrand factor (VWF), purified plasma-derived, multimeric, native (UniProt P04275); assay: microtiter plate binding (ELISA format, anti-V5 detection), VWF immobilised, static
[6] = target: von Willebrand factor pre-denatured with 1.5 M guanidine-HCl at 37 C for two hours (UniProt P04275); assay: SPR (BIAcore), guanidine-HCl denatured VWF injected over immobilised delCUB, equilibrium fit
[7] = target: von Willebrand factor (VWF), purified plasma-derived, multimeric, native (UniProt P04275); assay: SPR (BIAcore) under laminar flow
[8] = target: von Willebrand factor (VWF), purified plasma-derived, multimeric, native (UniProt P04275); assay: SPR (BIAcore), VWF injected under flow over immobilised delCUB, equilibrium fit, in the presence of 10 mM EDTA
[9] = target: von Willebrand factor pre-denatured with 1.5 M guanidine-HCl at 37 C for two hours (UniProt P04275); assay: SPR (BIAcore), guanidine-HCl denatured VWF injected over immobilised MDTCS, equilibrium fit
[10] = target: von Willebrand factor (VWF), purified plasma-derived, multimeric, native (UniProt P04275); assay: microtiter binding assay, immobilised vWF
[11] = target: recombinant vWF expressed in BHK cells overexpressing PACE/furin (UniProt P04275); assay: cell-based or functional assay
[12] = target: von Willebrand factor (VWF), purified plasma-derived, multimeric, native (UniProt P04275); assay: SPR (BIAcore), VWF injected under flow over immobilised T2-8CUB, equilibrium fit
[13] = target: von Willebrand factor (VWF), purified plasma-derived, multimeric, native (UniProt P04275); assay: SPR (BIAcore) under flow

Kd [1]: 212 nM
inhibition of proteolytic cleavage of VWF by ADAMTS13 under vortex-induced shear stress, fragment at 150 nM [2]: 75%
Molecule: ADAMTS13 TSP1 5-8 repeats plus CUB domains, N-terminal linker and Flag, C-terminal V5-His (from UniProt Q76LX8 884-1191; Q76LX8 1192-1427)

Molecule: ADAMTS13 variant truncated after the 8th TSP-1 repeat (lacking the CUB domains), C-terminal V5-His
cleavage of VWF under vortex-induced mechanic shear stress [3]: A removal of the CUB domains (delCUB) or more (MDTCS) abrogates its ability to cleave VWF

Kd [4]: 274 nM
Kd [5]: 70 nM
Kd [6]: 242 nM
fold reduction in affinity against full-length ADAMTS13 [7]: 5 fold
Kd [8]: 468 nM
Molecule: ADAMTS13 variant truncated after the 8th TSP-1 repeat (lacking the CUB domains), C-terminal V5-His (from UniProt Q76LX8 75-1191) (enzyme)

Molecule: ADAMTS13 variant truncated after the spacer domain, C-terminal V5-His
cleavage of VWF under vortex-induced mechanic shear stress [3]: A removal of the CUB domains (delCUB) or more (MDTCS) abrogates its ability to cleave VWF

Kd [5]: 56 nM
Kd [9]: 337 nM
Molecule: ADAMTS13 variant truncated after the spacer domain, C-terminal V5-His (from UniProt Q76LX8 75-685) (enzyme)

half-maximal effect on vWF proteolysis by ADAMTS13 [2]: 2.5 nM
increase in vWF proteolysis by ADAMTS13 under shear stress [2]: 10 fold
Molecule: B-domainless derivative of human factor VIII, FVIII-SQ (from UniProt P00451 20-762; P00451 1657-1667; P00451 1668-2351)

Kd [10]: 17 nM
concentration of FVIII-LC achieving the half maximal rate enhancing effect (IC50) [2]: 2 nM
increase of the maximal proteolytic cleavage product (˜350 kDa) with 5 nM FVIII-LC [2]: 7 to 8 fold
Molecule: isolated light chain of FVIII (from UniProt P00451 1668-2351)

half-maximal effect of FVIII on cleavage of rvWF by ADAMTS13 [11]: 3 nM
increase in product formation with rvWF as substrate in the presence of 20 nM FVIII [11]: 10 fold
Km of the enhancement of VWF cleavage by ADAMTS13 [2]: 2 to 3 nM
concentration of FVIII required for half maximal enhancement in product formation [2]: 3 nM
enhancement of ADAMTS13 cleavage of plasma vWF (350K product) in the presence of 10-20 nM FVIII [2]: 10 to 12 fold
half maximal effect of rFVIII on proteolytic cleavage of VWF by ADAMTS13 [2]: 2.9 nM
Molecule: recombinant human full-length coagulation factor VIII (from UniProt P00451 20-1667; P00451 1668-2351)

Kd [12]: 140 nM
inhibition of proteolytic cleavage of VWF by ADAMTS13 under vortex-induced shear stress, fragment at 150 nM [2]: 100%
fold increase in affinity against T5-8CUB [13]: 1.5 fold
B1: ADAMTS13 TSP1 2-8 repeats plus CUB domains, N-terminal linker and Flag, C-terminal V5-His (protein, not shown: small tags and cut ends)
chain: AAQPARRARRTKLALDTKDDDDKHVWTPVAWVWAAVRGPCSVSCGAGLRWVNYSCLDQARKELVETVQCQGSQQPPAWPEACVLEPCPPYWAVGDFGPCSASCGGGLRERPVRCVEAQGSLLKTLPPARCRAGAQQPAVALETCNPQPCPARWEVSEPSSCTSAGGAGLALENETCVPGADGLEAPVTEGPGSVDEKLPAPEPCVGMSCPPGWGHLDATSAGEKAPSPWGSIRTGAQAAHVWTPAAGSCSVSCGRGLMELRFLCMDSALRVPVQEELCGLASKPGSRREVCQAVPCPARWQYKLAACSVSCGRGVVRRILYCARAHGEDDGEEILLDTQCQGLPRPEPQEACSLEPCPPRWKVMSLGPCSASCGLGTARRSVACVQLDQGQDVEVDEAACAALVRPEASVPCLIADCTYRWHVGTWMECSVSCGDGIQRRRDTCLGPQAQAPVPADFCQHLPKPVTVRGCWAGPCVGQGTPSLVPHEEAAAPGRTTATPAGASLEWSQARGLLFSPAPQPRRLLPGPQENSVQSSACGRQHLEPTGTIDMRGPGQADCAVAIGRPLGEVVTLRVLESSLNCSAGDMLLLWGRLTWRKMCRKLLDMTFSSKTNTLVVRQRCGRPGGGVLLRYGSQLAPETFYRECDMQLFGPWGEIVSPSLSPATSNAGGCRLFINVAPHARIAIHALATNMGAGTEGANASYILIRDTHSLRTTAFHGQQVLYWESESSQAEMEFSEGFLKAQASLRGQYWTLQSWVPEMQDPQSWKGKEGT
